Reference: patent US20230212319A1, “NOVEL ANTIGEN BINDING DOMAINS AND SYNTHETIC ANTIGEN RECEPTORS INCORPORATING THE SAME” (University of Southern California, priority 2020, published 2023)

Key:
Assay type in all cases: cell-based
RAJI cells = test: JNG assay, co-culture with RAJI cells; conditions: JNG cells expressing construct, co-culture with Raji
Outline: (§1)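 Jurkat NFAT-GFP (JNG) cells stably transduced with SARs by lentivirus, with drug selection where the construct carried a resistance gene, then co-cultured with target cells at E:T ~1:2 for ~4–18 h. % GFP-positive cells measured by FACS against parental JNG; +/- to 5+ correspond to ~5–50% GFP-positive.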

Nalm6 cells = test: JNG assay, co-culture with Nalm6 cells; conditions: co-culture with Nalm6
Outline: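 Scoring uses % GFP+ reporter cells above the parental control, where +/-, +, 2+, 3+, 4+ and 5+ correspond to about 5, 10, 20, 30, 40 and 50%. Effectors were SAR-expressing Jurkat NFAT-GFP cells cocultured with targets (E:T ~1:2, ~4–18 h).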

RS;411 = test: JNG assay, co-culture with RS;411 cells; conditions: co-culture with RS411
Outline: as §1

B1: 22136 (protein)
chain: MALPVTALLLPLALLLHAARPEVQLVESGGGLVQAGGSLRLSCAASGRTFSMGWFRQAPGKEREFVAAITYSGGSPYYADSVKGRFTISRDNAKNTVYLQMNSLKPEDTAVYYCAANPTYGSDWNAENWGQGTQVTVSSGTGGGGSGGGGSGGGGSEFDIQMTQSPSSLSASVGDRVTITCKASDHINNWLAWYQQKPGQAPKLLIYGATTLETGVPSRFSGSGSGTDYTLTISSLQPEDFATYYCQQSWNTPWTFGQGTKLEIKRLEDLKNVFPPEVAVFEPSEAEISHTQKATLVCLATGFYPDHVELSWWVNGKEVHSGVCTDPQPLKEQPALNDSRYCLSSRLRVSATFWQNPRNHFRCQVQFYGLSENDEWTQDRAKPVTQIVSAEAWGRADCGFTSESYQQGVLSATILYEILLGKATLYAVLVSALVLMAMVKRKDSRGRAKRSGSGATNFSLLKQAGDVEENPGPTSATMDWIWRILFLVGAATGAHSGPQVQLQESGGGLAQAGGSLRLSCAASGRTFSMGWFRQAPGKEREFVAAITYSGGSPYYASSVRGRFTISRDNAKNTVYLQMNSLKPEDTAVYYCAANPTYGSDWNAENWGQGTQVTVSSGSGGGGSGGGGSGGGGSFEQVQLQQPGAELVKPGASVKMSCKASGYAFSSYWINWMKQKPGQGLEWIGQIYPGDGDTNYNGKFKGRATLTADTSSSTAYMQLSSLTSEDSAVYFCARSITTVVGCAMDYWGQGTSVTVSSTRIQNPDPAVYQLRDSKSSDKSVCLFTDFDSQTNVSQSKDSDVYITDKCVLDMRSMDFKSNSAVAWSNKSDFACANAFNNSIIPEDTFFPSPESSCDVKLVEKSFETDTNLNFQNLSVIGFRILLLKVAGFNLLMTLRLWSSRAKRSGSGVKQTLNFDLLKLAGDVESNPGPSRGHMTEYKPTVRLATRDDVPRAVRTLAAAFADYPATRHTVDPDRHIERVTELQELFLTRVGLDIGKVWVADDGAAVAVWTTPESVEAGAVFAEIGPRMAELSGSRLAAQQQMEGLLAPHRPKEPAWFLATVGVSPDHQGKGLGSAVVLPGVEAAERAGVPAFLETSAPRNLPFYERLGFTVTADVEVPEGPRTWCMTRKPGA
Q: B1 was tested. Which “NFAT-GFP ASSAY: Raji” value (RAJI cells) did it give?
A: The value was 3+ (refer to approximately 5%, 10%, 20%, 30%, 40% and 50% GFP positive cells).

Q: What about the “NFAT-GFP ASSAY: Nalm6” value (Nalm6 cells) of the same molecule?
A: Its value is “+ (refer to approximately 5%, 10%, 20%, 30%, 40% and 50% GFP positive cells)”.

Q: And the “NFAT-GFP ASSAY: RS411” value (RS;411)?
A: The value was “+ (refer to approximately 5%, 10%, 20%, 30%, 40% and 50% GFP positive cells)”.
